The text below walks through data of patent US20210196796A1 (SYNTHEKINE, published 2021).

The target in assay [1] is T1, orthogonal hCD122 receptor (hoRb), hCD122 with H133D and Y134F (human, UniProt P14784 27-550).
T1 sequence: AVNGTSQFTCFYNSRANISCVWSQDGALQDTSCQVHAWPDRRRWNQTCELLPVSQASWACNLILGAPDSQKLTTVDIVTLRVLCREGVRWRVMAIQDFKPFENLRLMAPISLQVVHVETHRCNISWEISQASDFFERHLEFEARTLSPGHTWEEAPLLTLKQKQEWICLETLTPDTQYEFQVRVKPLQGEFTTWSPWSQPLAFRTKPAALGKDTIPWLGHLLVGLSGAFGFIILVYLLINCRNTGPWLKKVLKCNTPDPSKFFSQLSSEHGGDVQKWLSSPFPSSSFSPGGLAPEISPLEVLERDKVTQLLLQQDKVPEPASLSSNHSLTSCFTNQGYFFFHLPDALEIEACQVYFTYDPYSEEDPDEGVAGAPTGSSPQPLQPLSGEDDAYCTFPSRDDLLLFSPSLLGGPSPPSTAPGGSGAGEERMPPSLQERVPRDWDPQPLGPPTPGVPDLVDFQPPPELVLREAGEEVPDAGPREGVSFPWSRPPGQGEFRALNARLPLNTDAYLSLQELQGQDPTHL
Kind of assay: cell-based or functional assay.

For assay [2], the target named is T1, orthogonal hCD122 receptor (hoRb), …. Kind of assay: cell-based or functional assay. The source holds these as a separate data set.
Throughout, for Relative Proliferation Fold Change 3F8 1:10: reference of the scale not given here.
Throughout, for Relative Proliferation Fold Change 3F8 1:2: reference of the scale not given here.
Throughout, for Relative Proliferation Fold Change 3F8 1:50: reference of the scale not given here.
Throughout, for Relative Proliferation Fold Change NKL 1:10: reference of the scale not given here.
Throughout, for Relative Proliferation Fold Change NKL 1:2: reference of the scale not given here.
Throughout, for Relative Proliferation Fold Change NKL 1:50: reference of the scale not given here.

B1: L18T, SQVLKA (ligand)
chain: APTSSSTKKTQLQLSQLTVLLKAILNGINNYKNPKLTRMLTFKFYMPKKATELKHLQCLEEELKPLEEVLNLAQSKNFHLRPRDLISNINVIVLELKGSETTFMCEYADETATIVEFLNRWITFCQSIISTLT
With B1, in assay [1], the “NKL Ortho Proliferation Signal 1:2” value stood at 25000, the “NKL Ortho Proliferation Signal 1:10” value is 20100, the “NKL Ortho Proliferation Signal 1:50” value amounted to 11300 and the “Relative Proliferation Fold Change NKL 1:2” value came to 2.37 fold. Further, in assay [1], the “Relative Proliferation Fold Change NKL 1:10” value was determined as 1.49 fold and the “Relative Proliferation Fold Change NKL 1:50” value was 0.87 fold. In assay [2], the “3F8 Ortho Proliferation Signal 1:2” value stood at 61100 cts/min, the “3F8 Ortho Proliferation Signal 1:10” value came to 51800 cts/min, the “3F8 Ortho Proliferation Signal 1:50” value was found to be 25700 cts/min and the “Relative Proliferation Fold Change 3F8 1:2” value was determined as 2.05 fold. In addition, in assay [2], the “Relative Proliferation Fold Change 3F8 1:10” value is 6.27 fold and the “Relative Proliferation Fold Change 3F8 1:50” value came to 13.8 fold.

B2: SQVSKA (ligand)
chain: APTSSSTKKTQLQLSQLLVSLKAILNGINNYKNPKLTRMLTFKFYMPKKATELKHLQCLEEELKPLEEVLNLAQSKNFHLRPRDLISNINVIVLELKGSETTFMCEYADETATIVEFLNRWITFCQSIISTLT
B2: in assay [1], the “NKL Ortho Proliferation Signal 1:2” value turned out to be 59500, the “NKL Ortho Proliferation Signal 1:10” value came to 73700, the “NKL Ortho Proliferation Signal 1:50” value was found to be 45000 and the “Relative Proliferation Fold Change NKL 1:2” value amounted to 1 fold. Also, in assay [1], the “Relative Proliferation Fold Change NKL 1:10” value was 1.73 fold and the “Relative Proliferation Fold Change NKL 1:50” value worked out at 1.91 fold. In addition, in assay [2], the “3F8 Ortho Proliferation Signal 1:2” value came to 47300 cts/min, the “3F8 Ortho Proliferation Signal 1:10” value was 56600 cts/min, the “3F8 Ortho Proliferation Signal 1:50” value was determined as 33100 cts/min and the “Relative Proliferation Fold Change 3F8 1:2” value was found to be 0.81 fold. In assay [2], the “Relative Proliferation Fold Change 3F8 1:10” value came to 1.23 fold and the “Relative Proliferation Fold Change 3F8 1:50” value is 1.29 fold.

B3: T3E, SQVLKA (ligand)
chain: APESSSTKKTQLQLSQLLVLLKAILNGINNYKNPKLTRMLTFKFYMPKKATELKHLQCLEEELKPLEEVLNLAQSKNFHLRPRDLISNINVIVLELKGSETTFMCEYADETATIVEFLNRWITFCQSIISTLT
On to B3, for which, in assay [1], the “NKL Ortho Proliferation Signal 1:2” value is 68600, the “NKL Ortho Proliferation Signal 1:10” value was 75000, the “NKL Ortho Proliferation Signal 1:50” value was determined as 37400 and the “Relative Proliferation Fold Change NKL 1:2” value turned out to be 3.97 fold. In assay [1], the “Relative Proliferation Fold Change NKL 1:10” value is 3.86 fold and the “Relative Proliferation Fold Change NKL 1:50” value was 2.06 fold. In assay [2], the “3F8 Ortho Proliferation Signal 1:2” value stood at 36100 cts/min, the “3F8 Ortho Proliferation Signal 1:10” value was found to be 36200 cts/min, the “3F8 Ortho Proliferation Signal 1:50” value amounted to 18900 cts/min and the “Relative Proliferation Fold Change 3F8 1:2” value came out at 20.8 fold. Moreover, in assay [2], the “Relative Proliferation Fold Change 3F8 1:10” value turned out to be 45.5 fold and the “Relative Proliferation Fold Change 3F8 1:50” value was 16 fold.

B4: T3Q, SQVLKA (ligand)
chain: APQSSSTKKTQLQLSQLLVLLKAILNGINNYKNPKLTRMLTFKFYMPKKATELKHLQCLEEELKPLEEVLNLAQSKNFHLRPRDLISNINVIVLELKGSETTFMCEYADETATIVEFLNRWITFCQSIISTLT
With B4, in assay [1], the “NKL Ortho Proliferation Signal 1:2” value worked out at 65300, the “NKL Ortho Proliferation Signal 1:10” value is 73700, the “NKL Ortho Proliferation Signal 1:50” value stood at 34800 and the “Relative Proliferation Fold Change NKL 1:2” value amounted to 4.19 fold. In assay [1], the “Relative Proliferation Fold Change NKL 1:10” value amounted to 4.03 fold and the “Relative Proliferation Fold Change NKL 1:50” value came out at 1.93 fold. In assay [2], the “3F8 Ortho Proliferation Signal 1:2” value was found to be 39200 cts/min, the “3F8 Ortho Proliferation Signal 1:10” value turned out to be 32200 cts/min, the “3F8 Ortho Proliferation Signal 1:50” value stood at 14200 cts/min and the “Relative Proliferation Fold Change 3F8 1:2” value was determined as 68.3 fold. In addition, in assay [2], the “Relative Proliferation Fold Change 3F8 1:10” value amounted to 28.2 fold and the “Relative Proliferation Fold Change 3F8 1:50” value was 17.2 fold.

B5: SQILKA (ligand)
chain: APTSSSTKKTQLQLSQLLILLKAILNGINNYKNPKLTRMLTFKFYMPKKATELKHLQCLEEELKPLEEVLNLAQSKNFHLRPRDLISNINVIVLELKGSETTFMCEYADETATIVEFLNRWITFCQSIISTLT
Take B5: in assay [1], the “NKL Ortho Proliferation Signal 1:2” value came to 55300, the “NKL Ortho Proliferation Signal 1:10” value amounted to 52500, the “NKL Ortho Proliferation Signal 1:50” value amounted to 24500 and the “Relative Proliferation Fold Change NKL 1:2” value was 4.01 fold. Moreover, in assay [1], the “Relative Proliferation Fold Change NKL 1:10” value was 3.44 fold and the “Relative Proliferation Fold Change NKL 1:50” value stood at 1.67 fold. Moreover, in assay [2], the “3F8 Ortho Proliferation Signal 1:2” value came out at 38500 cts/min, the “3F8 Ortho Proliferation Signal 1:10” value was 45700 cts/min, the “3F8 Ortho Proliferation Signal 1:50” value is 20300 cts/min and the “Relative Proliferation Fold Change 3F8 1:2” value is 45.8 fold. For the same molecule, in assay [2], the “Relative Proliferation Fold Change 3F8 1:10” value was determined as 34.2 fold and the “Relative Proliferation Fold Change 3F8 1:50” value was found to be 34.4 fold.

B6: T3G, SQVLKA (ligand)
chain: APGSSSTKKTQLQLSQLLVLLKAILNGINNYKNPKLTRMLTFKFYMPKKATELKHLQCLEEELKPLEEVLNLAQSKNFHLRPRDLISNINVIVLELKGSETTFMCEYADETATIVEFLNRWITFCQSIISTLT
For B6, in assay [1], the “NKL Ortho Proliferation Signal 1:2” value amounted to 58900, the “NKL Ortho Proliferation Signal 1:10” value was found to be 66900, the “NKL Ortho Proliferation Signal 1:50” value turned out to be 32200 and the “Relative Proliferation Fold Change NKL 1:2” value came to 3.94 fold. Further, in assay [1], the “Relative Proliferation Fold Change NKL 1:10” value is 3.76 fold and the “Relative Proliferation Fold Change NKL 1:50” value was 1.92 fold. For the same molecule, in assay [2], the “3F8 Ortho Proliferation Signal 1:2” value was determined as 31800 cts/min, the “3F8 Ortho Proliferation Signal 1:10” value is 24400 cts/min, the “3F8 Ortho Proliferation Signal 1:50” value turned out to be 9460 cts/min and the “Relative Proliferation Fold Change 3F8 1:2” value was determined as 20.4 fold. In addition, in assay [2], the “Relative Proliferation Fold Change 3F8 1:10” value was determined as 19.4 fold and the “Relative Proliferation Fold Change 3F8 1:50” value came to 7.14 fold.

B7: ΔL19, SQ_LKA (ligand)
chain: APTSSSTKKTQLQLSQLLLLKAILNGINNYKNPKLTRMLTFKFYMPKKATELKHLQCLEEELKPLEEVLNLAQSKNFHLRPRDLISNINVIVLELKGSETTFMCEYADETATIVEFLNRWITFCQSIISTLT
For the molecule B7, in assay [1], the “NKL Ortho Proliferation Signal 1:2” value worked out at 6440, the “NKL Ortho Proliferation Signal 1:10” value worked out at 9120, the “NKL Ortho Proliferation Signal 1:50” value was determined as 8470 and the “Relative Proliferation Fold Change NKL 1:2” value was determined as 0.49 fold. Also, in assay [1], the “Relative Proliferation Fold Change NKL 1:10” value is 0.62 fold and the “Relative Proliferation Fold Change NKL 1:50” value worked out at 0.59 fold. For the same molecule, in assay [2], the “3F8 Ortho Proliferation Signal 1:2” value is 736 cts/min, the “3F8 Ortho Proliferation Signal 1:10” value stood at 1070 cts/min, the “3F8 Ortho Proliferation Signal 1:50” value was 1540 cts/min and the “Relative Proliferation Fold Change 3F8 1:2” value turned out to be 1.11 fold. In assay [2], the “Relative Proliferation Fold Change 3F8 1:10” value was determined as 1.27 fold and the “Relative Proliferation Fold Change 3F8 1:50” value came out at 1.98 fold.

B8: ΔD20, SQV_KA (ligand)
chain: APTSSSTKKTQLQLSQLLVLKAILNGINNYKNPKLTRMLTFKFYMPKKATELKHLQCLEEELKPLEEVLNLAQSKNFHLRPRDLISNINVIVLELKGSETTFMCEYADETATIVEFLNRWITFCQSIISTLT
As to B8, in assay [1], the “NKL Ortho Proliferation Signal 1:2” value worked out at 6790, the “NKL Ortho Proliferation Signal 1:10” value worked out at 9390, the “NKL Ortho Proliferation Signal 1:50” value worked out at 8690 and the “Relative Proliferation Fold Change NKL 1:2” value was determined as 0.52 fold. Besides, in assay [1], the “Relative Proliferation Fold Change NKL 1:10” value was determined as 0.59 fold and the “Relative Proliferation Fold Change NKL 1:50” value stood at 0.56 fold. Moreover, in assay [2], the “3F8 Ortho Proliferation Signal 1:2” value was 1010 cts/min, the “3F8 Ortho Proliferation Signal 1:10” value is 1270 cts/min, the “3F8 Ortho Proliferation Signal 1:50” value was 1370 cts/min and the “Relative Proliferation Fold Change 3F8 1:2” value amounted to 1.51 fold. In addition, in assay [2], the “Relative Proliferation Fold Change 3F8 1:10” value turned out to be 1.35 fold and the “Relative Proliferation Fold Change 3F8 1:50” value was determined as 1.66 fold.
